Experimental data taken from publication PMC11406361, “Several orphan solute carriers functionally identified as organic cation transporters: Substrates specificity compared with known cation transporters” (The Journal of Biological Chemistry, 2024).

Tests used:
Test in all cases: cells, lysate or membranes
C[N+](C)(C)CCO = conditions: other: SLC35E1, HEK293, net uptake over empty vector cells; pH 7.4
CC(N)Cc1ccccc1 = conditions: pH 7.4
CN1CCC[C@H]1c1cccnc1 = conditions: other: SLC38A10, HEK293, net uptake over empty vector cells; pH 7.4
Clc1cccc(Cl)c1N=C1NCCN1 = conditions: other: SLC38A10, HEK293, net uptake over empty vector cells; pH 7.4

## SLC35E1 (Homo sapiens)
C[N+](C)(C)CCO
  Km: 91.6 (±39.8) μM
  Vmax: 8.71e-05 µmol/min/mg
  Vmax/Km: 0.95 µL/min/mg

## SLC38A10 (Homo sapiens)
CC(N)Cc1ccccc1
  Km: 120 (±44.9) μM
CN1CCC[C@H]1c1cccnc1
  Km: 62.0 (±35.6) μM
Clc1cccc(Cl)c1N=C1NCCN1
  Km: 162 (±141) μM
  Vmax: 0.000427 µmol/min/mg
  Vmax/Km: 2.64 µL/min/mg
